In test [1] the target is T1, CD3 on the surface of primary T cells (human, UniProt P07766 23-207).
T1 construct: whole, on cells; CD3 is a multimeric complex (ε, γ, δ, ζ chains) with the TCR; In the reporter assays CD3 stood on Jurkat cells; also called CD3ε
Description: flow cytometry on isolated primary human T cells. The procedure:
(§1) Binding of exemplary multispecific constructs containing an antigen-binding domain directed against B7H3 were assessed for binding to B7H3 positive A375 tumor cells or primary T-cells. The constructs were generated containing antigen-binding domain(s) that were either sdAbs or a FABs, and that were positioned either only N-terminal to the Fc or both N-terminal to the Fc and C-terminal to the anti-CD3 binding domain (see FIGS. 3A and 3C and Table E1.1). Among the various formats of constructs tested included: sdAb-Fc-dsFV-sdAb (cx3072, cx5952) sdAb-Fc-FV (cx6079), sdAb-Fc-dsFV (cs6080, cx6081), MAB-FV (cx5067) and MAB-dsFV (cx6083, cx6084), where the FV represents the anti-CD3 binding domain composed of VH and VL domain pairs and “ds” notes disulfide stabilized via an engineered interdomain disulfide bond.
(§2) Binding was assessed as described above via flow cytometry using a fluorophore-conjugated anti-human Fc secondary antibody. cx3072 bound to A375 cells with high affinity (FIG. 6A) but not to isolated T-cells (FIG. 6B). […] The B7H3-targeting sdAb containing constructs (cx5952, cx6079, cx6080, and cx6081) bound to B7H3 positive cells with similar affinities (depicted in FIG. 6E), with cx5952 displaying higher maximal binding. cx6079, cx6080 and cx6081 contain two identical B7H3-targeting sdAbs, whereas cx5952, and cx3072 contain two distinct B7H3-targeting sdAb that bind different epitopes. The MAB-FV, cx5067, contains two identical B7H3-targeting FAB domains.

In test [2] the target is T2, B7H3 (CD276) (human, UniProt Q5ZPR3 29-534).
T2 construct: whole, on cells
T2 sequence (looked up): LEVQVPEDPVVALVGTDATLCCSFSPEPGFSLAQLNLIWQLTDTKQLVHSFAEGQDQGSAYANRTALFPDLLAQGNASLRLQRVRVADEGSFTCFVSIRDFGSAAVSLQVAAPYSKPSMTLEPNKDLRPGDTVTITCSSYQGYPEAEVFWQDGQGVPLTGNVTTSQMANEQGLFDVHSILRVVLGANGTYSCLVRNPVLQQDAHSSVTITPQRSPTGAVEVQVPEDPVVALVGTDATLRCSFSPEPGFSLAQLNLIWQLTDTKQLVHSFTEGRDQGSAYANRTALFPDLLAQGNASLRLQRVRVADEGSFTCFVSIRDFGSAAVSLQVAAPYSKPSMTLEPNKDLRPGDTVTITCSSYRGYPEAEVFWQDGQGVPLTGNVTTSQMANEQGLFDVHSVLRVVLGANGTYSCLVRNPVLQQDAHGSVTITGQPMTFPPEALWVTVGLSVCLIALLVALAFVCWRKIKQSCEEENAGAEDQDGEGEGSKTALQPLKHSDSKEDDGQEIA
Description: flow cytometry on A375 cells, anti-human Fc secondary. Here is the method:
as §1, §2
(Flow cytometry measures light scatter and fluorescence of single cells or particles in a stream.)

Test [3] concerns the target T2, B7H3 (CD276). Description: flow cytometry on A375 cells. The procedure:
as §1
Binding was assessed as described above via flow cytometry using a fluorophore-conjugated anti-human Fc secondary antibody. cx3072 bound to A375 cells with high affinity (FIG. 6A) but not to isolated T-cells (FIG. 6B). […]

Where a chain is given by its changes, count along the chain named. Numbers in names are those of the source.

T1 sequence (P07766 23-207): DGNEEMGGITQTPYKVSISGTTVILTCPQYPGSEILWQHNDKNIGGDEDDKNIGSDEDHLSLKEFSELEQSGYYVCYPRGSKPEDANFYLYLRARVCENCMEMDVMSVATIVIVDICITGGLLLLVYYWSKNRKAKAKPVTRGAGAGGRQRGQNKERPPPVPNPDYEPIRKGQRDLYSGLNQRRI

B1: cx6081 (bispecific antibody)
chain 1: EVQLVESGGGEVQPGGSLRLSCAASGFSFSSNVMMWVRQAPGKGLEWVSTIYSSGTGTFYAESVKGRFTISRDNAKNTLYLQMSSLRPEDTAVYYCATSGPVRGWGPRSQGTLVTVKPPGGGGDKTHTCPPCPAPPVAGPSVFLFPPKPKDTLMISRTPEVTCVVVDVKHEDPEVKFNWYVDGVEVHNAKTKPREEEYNSTYRVVSVLTVLHQDWLNGKEYKCKVSNKALPAPIEKTISKAKGQPREPQVYTLPPSREEMTKNQVSLTCDVSGFYPSDIAVEWESDGQPENNYKTTPPVLDSDGSFFLYSKLTVDKSRWEQGDVFSCSVMHEALHNHYTQKSLSLSPGKGGGGSGGGGSGGGGSEVQLVESGGGLVQPGGSLRLSCAASGFTFNTYAMNWVRQAPGKCLEWVARIRSKYNNYATYYADSVKGRFTISRDDAKNTLYLQMSSLRAEDTAVYYCVRHGNFGNSYVSWFAYWGQGTLVTVKP
chain 2: EVQLVESGGGEVQPGGSLRLSCAASGFSFSSNVMMWVRQAPGKGLEWVSTIYSSGTGTFYAESVKGRFTISRDNAKNTLYLQMSSLRPEDTAVYYCATSGPVRGWGPRSQGTLVTVKPPGGGGDKTHTCPPCPAPPVAGPSVFLFPPKPKDTLMISRTPEVTCVVVDVKHEDPEVKFNWYVDGVEVHNAKTKPREEQYNSTYRVVSVLTVLHQDWLNGKEYKCKVSNKALPAPIEKTISKAKGQPREPQVYTLPPSREQMTKNQVKLTCLVKGFYPSDIAVEWESNGQPENNYKTTPPVLDSDGSFFLYSKLTVDKSRWQQGNVFSCSVMHEALHNHYTQKSLSLSPGKGGGGSGGGGSGGGGSQAVVTQEPSLTVSPGGTVTLTCGSSTGAVTTSNYANWVQQKPGQAFRGLIGGTNKRAPGVPARFSGSLLGGKAALTISGAQPEDEADYYCALWYSNHWVFGCGTKLEIK
notes: Heterodimer of chain 1 and chain 2; anti-CD3 Fv disulfide-stabilized (VH G44C / VL G100C); two identical B7H3 sdAbs, both N-terminal to the Fc; also called cs6081; B7H3-targeting constrained CD3 engaging construct
For the molecule B1, the binding result in test [1] is “no binding”; with B7H3 (CD276) [2], “binds”.

B2: cx6080 (bispecific antibody)
chain 1: B1 chain 1 with N394S, A413G, A441S, S450N, N470D, K488S, P489S
chain 2: B1 chain 2 with Q408K, A409S, F410P, E471T, I472V, K473L
notes: Heterodimer of chain 1 and chain 2; anti-CD3 Fv disulfide-stabilized (VH G44C / VL G100C); two identical B7H3 sdAbs, both N-terminal to the Fc; also called cs6080; B7H3-targeting constrained CD3 engaging construct
For B2, the binding result with B7H3 (CD276) [3] is on record as “binds”; in test [1], “no binding”.

B3: cx5067 (bispecific antibody)
chain 1: EVQLVESGGGLVQPGGSLRLSCAASGFTFSSFGMHWVRQAPGKGLEWVAYISSDSSAIYYADTVKGRFTISRDNAKNSLYLQMNSLRDEDTAVYYCGRGRENIYYGSRLDYWGQGTTVTVSSASTKGPSVFPLAPSSKSTSGGTAALGCLVKDYFPEPVTVSWNSGALTSGVHTFPAVLQSSGLYSLSSVVTVPSSSLGTQTYICNVNHKPSNTKVDKKVEPKSCDKTHTCPPCPAPPVAGPSVFLFPPKPKDTLMISRTPEVTCVVVDVKHEDPEVKFNWYVDGVEVHNAKTKPREEEYNSTYRVVSVLTVLHQDWLNGKEYKCKVSNKALPAPIEKTISKAKGQPREPQVYTLPPSREEMTKNQVSLTCDVSGFYPSDIAVEWESDGQPENNYKTTPPVLDSDGSFFLYSKLTVDKSRWEQGDVFSCSVMHEALHNHYTQKSLSLSPGKGGGGSGGGGSGGGGSEVQLVESGGGLVQPGGSLRLSCAASGFTFSTYAMNWVRQAPGKGLEWVGRIRSKYNNYATYYADSVKGRFTISRDDSKNTLYLQMNSLRAEDTAVYYCVRHGNFGDSYVSWFAYWGQGTLVTVSS
chain 2: EVQLVESGGGLVQPGGSLRLSCAASGFTFSSFGMHWVRQAPGKGLEWVAYISSDSSAIYYADTVKGRFTISRDNAKNSLYLQMNSLRDEDTAVYYCGRGRENIYYGSRLDYWGQGTTVTVSSASTKGPSVFPLAPSSKSTSGGTAALGCLVKDYFPEPVTVSWNSGALTSGVHTFPAVLQSSGLYSLSSVVTVPSSSLGTQTYICNVNHKPSNTKVDKKVEPKSCDKTHTCPPCPAPPVAGPSVFLFPPKPKDTLMISRTPEVTCVVVDVKHEDPEVKFNWYVDGVEVHNAKTKPREEQYNSTYRVVSVLTVLHQDWLNGKEYKCKVSNKALPAPIEKTISKAKGQPREPQVYTLPPSREQMTKNQVKLTCLVKGFYPSDIAVEWESNGQPENNYKTTPPVLDSDGSFFLYSKLTVDKSRWQQGNVFSCSVMHEALHNHYTQKSLSLSPGKGGGGSGGGGSGGGGSQAVVTQEPSLTVSPGGTVTLTCGSSTGAVTTSNYANWVQQKPGKSPRGLIGGTNKRAPGVPARFSGSLLGGKAALTISGAQPEDEADYYCALWYSNHWVFGGGTKLTVL
light: DIQLTQSPSFLSASVGDRVTITCKASQNVDTNVAWYQQKPGKAPKALIYSASYRYSGVPSRFSGSGSGTDFTLTISSLQPEDFATYYCQQYNNYPFTFGQGTKLEIKRTVAAPSVFIFPPSDEQLKSGTASVVCLLNNFYPREAKVQWKVDNALQSGNSQESVTEQDSKDSTYSLSSTLTLSKADYEKHKVYACEVTHQGLSSPVTKSFNRGEC
notes: Three polypeptides; two identical B7H3 Fab domains; anti-CD3 Fv not disulfide-stabilized; also called MAB-FV; B7H3-targeted constrained CD3 engaging construct (Fab format)
On to B3, for which the binding result is “no binding” in test [1] and “binds” with B7H3 (CD276) [2].

B4: cx6084 (bispecific antibody, human IgG1, kappa)
chain 1: B3 chain 1 with S496N, G510C, G515A, S543A, N552S, D572N, S590K, S591P
chain 2: B3 chain 2 with K510Q, S511A, P512F, G568C, T573E, V574I, L575K
light: B3 light
notes: Three polypeptides; B7H3 Fab on both Fc chains; anti-CD3 Fv disulfide-stabilized (VH G44C / VL G100C); also called MAB-dsFV; B7H3-targeted constrained CD3 engaging construct (Fab format)
Consider B4, for which the results for the binding result (in test [1]; in the test with B7H3 (CD276) [2]) were “no binding” and “binds”, respectively.

B5: cx6083 (bispecific antibody)
chain 1: B3 chain 1 with G510C
chain 2: B3 chain 2 with G568C
light: B3 light
notes: as for B4
Consider B5, for which the binding result in test [1] is “no binding”; with B7H3 (CD276) [2] it was “binds”.

For the origin of these results see patent publication US20230295336A1 (INHIBRX, published 2023).
